Tests used:
[1] = biological target: recombinant human Par-1 antigen (protease activated receptor-1) (human) (UniProt P25116); experiment: BLI (ForteBio Octet), Experiment 1, Fab at 1E-8 M
[2] = biological target: recombinant human Par-1 antigen (protease activated receptor-1) (human) (UniProt P25116); experiment: BLI (ForteBio Octet), Experiment 2, Fab at 2.5E-8 M

| Kd [1] [nM] | koff [1] [s⁻¹] | kon [1] [M⁻¹ s⁻¹] | Kd [2] [nM] | koff [2] [s⁻¹] | kon [2] [M⁻¹ s⁻¹] | Binder |
| --- | --- | --- | --- | --- | --- | --- |
| 1.18 | 0.000311 | 265000 |  |  |  | LDS896 (Fab, V domains shown, Fab constant regions not given) VH: EVQLVQSGAEVKKPGSSVKVSCKVSGGTFSNYVFNWVRQAPGQGLEWMGVINPHSGRTRYNQKFKGRVTMTTDTSTSTAYMELRSLTSDDTAVYYCARDDGPSHWYFDVWGQGTTVTVSS VL: DIVMTQSPLSLPVTPGEPASISCRSSQSLLHRNGNNYLEWYLQKPGQSPRLLIYKISNRFSGVPDRFSGSGAGTDFTLKISRVEAEDVGVYYCFQGSHVPFTFGQGTKLEIK |
|  |  |  | 1.13 | 0.000293 | 259000 | LDW653 (Fab, V domains shown, Fab constant regions not given) VH: QVQLVQSGAEVKKPGASVKVSCKASGYTFNSYYMNWVRQAPGQGLEWMGVIDPHGGRTRYNQKFKGRVTMTTDTSTSTVYMELSSLRSEDTAVYYCARDDGPSMWYFDVWGQGTTVTVSS VL: DIVMTQSPLSLPVTPGEPASISCRSSQSLLHRNGNNYLEWYLQKPGQSPRLLIYKISNRFSGVPDRFSGSGAGTDFTLKISRVEAEDVGVYYCFQGSSVPFTFGQGTKLEIK |
|  |  |  | 1.47 | 0.000289 | 196000 | LDS900 (Fab, V domains shown, Fab constant regions not given) VH: QVQLVQSGAEVKKPGASVKVSCKASGYTFNSYYMNWVRQAPGQGLEWMGVIDPHGGRTRYNQKFKGRVTMTTDTSTSTAYMELRSLTSDDTAVYYCARDDGPSLWYFDVWGQGTTVTVSS VL: DIVMTQSPLSLPVTPGEPASISCRSSQSLLHRNGNNYLEWYLQKPGQSPRLLIYKISNRFSGVPDRFSGSGAGTDFTLKISRVEAEDVGVYYCFQGSHVPFTFGQGTKLEIK |

Source: patent US20100330090A1
